Data set [1] addresses HsmtSSBΔN, deletion variant lacking the first 9 residues in the N-terminus of mature HsmtSSB (human). As to the kind of experiment: SEC + other: glycerol gradient velocity sedimentation; 12-30% glycerol gradients, 264,000 x g, 63 hr, 4°C, 35 mM Tris-HCl pH 7.5, 100 mM NaCl, 2 mM EDTA, 5 mM DTT; Superdex 75 gel filtration in the same buffer with 8% glycerol, 4°C; native mass calculated from the S value and the Stokes radius.

Data set [2] deals with the molecule itself. The data set is described as above.
For a further data set, the target named is T1, HsmtSSBΔN (Homo sapiens, UniProt Q04837 =M+26-148, internal_change).
T1 sequence: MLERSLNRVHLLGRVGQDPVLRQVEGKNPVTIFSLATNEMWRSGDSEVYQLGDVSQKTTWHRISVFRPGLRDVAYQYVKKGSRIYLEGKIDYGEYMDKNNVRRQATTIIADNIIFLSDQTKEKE
Briefly: EMSA; 50 mM NaCl, 4 mM Mg2+; apparent Kd, protein as tetramer; 20 mM Tris-HCl pH 7.5, 1 mM DTT, 4 mM MgCl2, 50 mM NaCl, 36 fmol 48-mer in 20 µL, 20°C 10 min; 6% native PAGE. Particulars: protein: recombinant; tags: none (untagged); chain copies: 4; label: 5'-32P; single strand. In general terms: Mobility shift assays separate free from complexed probe on a gel.

For data set [3], the target named is T2, HsmtSSBwt (mature human mitochondrial SSB) (Homo sapiens, UniProt Q04837 17-148).
T2 sequence: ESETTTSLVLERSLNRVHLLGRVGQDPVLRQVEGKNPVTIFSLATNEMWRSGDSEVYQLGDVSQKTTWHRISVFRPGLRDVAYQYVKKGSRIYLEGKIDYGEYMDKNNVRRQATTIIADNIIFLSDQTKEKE
Described as above. The following applies: protein: recombinant; tags: none (untagged); chain copies: 4; label: 5'-32P; single strand.

In the next data set the target is T3, HsmtSSBΔNΔC (Homo sapiens, UniProt Q04837 =M+26-141, internal_change).
T3 sequence: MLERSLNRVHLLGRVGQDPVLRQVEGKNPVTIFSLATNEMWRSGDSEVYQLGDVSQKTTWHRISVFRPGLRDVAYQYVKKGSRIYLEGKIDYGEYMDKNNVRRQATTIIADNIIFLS
The description is as above. The following applies: protein: recombinant; tags: none (untagged); chain copies: 4; label: 5'-32P; single strand.

The target in a further data set is T4, HsmtSSBΔC (Homo sapiens, UniProt Q04837 =M+17-141, internal_change).
T4 sequence: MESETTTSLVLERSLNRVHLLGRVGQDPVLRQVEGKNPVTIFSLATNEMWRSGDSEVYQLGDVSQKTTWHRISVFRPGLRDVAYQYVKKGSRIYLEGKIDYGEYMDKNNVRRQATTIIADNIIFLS
The description is as above. The following applies: protein: recombinant; tags: none (untagged); chain copies: 4; label: 5'-32P; single strand.

As a reminder, the stoichiometry N is the number of molecules, sites or subunits per partner or assembly. On to “HsmtSSBΔN, deletion variant lacking the first 9 residues in the N-terminus of mature HsmtSSB (domain or fragment)”, for which the stoichiometry N in data set [1] is 4.

B1: human mitochondrial single-stranded DNA-binding protein, mature wild type (HsmtSSBwt) (natural protein, UniProt Q04837 17-148, looked up)
chain: T2 sequence
notes: numbers count on: the mature protein; Untagged; The forward primer (CATATG GAGTCC...) puts a start methionine before the first mature residue; also called human mtSSB; source: E. coli BL21(DE3), pET-11a, untagged, purified (Blue Sepharose, phosphocellulose)
For B1, in data set [2], the “stoichiometry N” value was 4.

B2: HsmtSSBΔC, deletion variant lacking the last 7 residues in the C-terminus of HsmtSSB (domain or fragment, human, UniProt Q04837 17-141, looked up)
chain: ESETTTSLVLERSLNRVHLLGRVGQDPVLRQVEGKNPVTIFSLATNEMWRSGDSEVYQLGDVSQKTTWHRISVFRPGLRDVAYQYVKKGSRIYLEGKIDYGEYMDKNNVRRQATTIIADNIIFLS
notes: human mtSSB, mature protein lacking its last 7 residues; numbers count on: the mature protein; Untagged; The reverse primer puts a new stop codon after codons that read ...D-N-I-I-F-L-S. A start methionine precedes the first mature residue
On to B2, for which, in data set [2], the “stoichiometry N” value is 4.

B3: HsmtSSBΔNΔC, variant of HsmtSSB that lacks both termini (first 9 and last 7 residues of the mature protein) (domain or fragment, human, UniProt Q04837 26-141, looked up)
chain: LERSLNRVHLLGRVGQDPVLRQVEGKNPVTIFSLATNEMWRSGDSEVYQLGDVSQKTTWHRISVFRPGLRDVAYQYVKKGSRIYLEGKIDYGEYMDKNNVRRQATTIIADNIIFLS
notes: human mtSSB, mature protein lacking its first 9 and its last 7 residues; numbers count on: the mature protein; Untagged; Made with the forward primer of ΔN (new start methionine before L-E-R-S) and the reverse primer of ΔC (stop after ...F-L-S); source: E. coli BL21(DE3), pET-11a, untagged, purified (Blue Sepharose, phosphocellulose)
B3: in data set [2], the “stoichiometry N” value was 4.

B4: 48-mer ssDNA oligonucleotide (ssDNA)
DNA: GGACTATTTATTAAATATATTTAAGAACTAATTCCAGCTGAGCGCCGG
Regarding B4, the Kd (with HsmtSSBΔN; in data set [3]; in the data set with HsmtSSBΔNΔC; with HsmtSSBΔC) was ~5 nM in each case.
